{"source": "patent US7879792", "key": {"human γ-thrombin (human)": {"target": "human γ-thrombin (human) (UniProt P00734)", "test": "inhibition of γ-thrombin hydrolysis of Sar-Pro-Arg-paranitroanilide; Ki from Ki,app by the procedure of Bieth"}, "[1]": {"target": "recombinant extracellular domain of human PAR4 (rPAR4EC), Gly18-Arg78 (human) (UniProt Q96RI0)", "test": "displacement of 15 µM RPPGFK-biotin from plate-bound rPAR4EC; peptide at 1000 µM"}, "[2]": {"target": "recombinant extracellular domain of human PAR4 (rPAR4EC), Gly18-Arg78 (human) (UniProt Q96RI0)", "test": "displacement of 15 µM RPPGFK-biotin from plate-bound rPAR4EC; peptide at 30 µM"}, "[3]": {"target": "recombinant extracellular domain of human PAR4 (rPAR4EC), Gly18-Arg78 (human) (UniProt Q96RI0)", "test": "displacement of 15 µM RPPGFK-biotin from plate-bound rPAR4EC; peptide at 300 µM"}, "human α-thrombin (human) [4]": {"target": "human α-thrombin (human) (UniProt P00734)", "test": "cell-based or functional assay"}, "human α-thrombin (human) [5]": {"target": "human α-thrombin (human) (UniProt P00734)", "test": "inhibition of α-thrombin hydrolysis of Sar-Pro-Arg-paranitroanilide; Ki from Ki,app by the procedure of Bieth"}}, "note": "pKi: −log10 of the molar value."}
{"substance": "rOicPaF(p-Br) (D-Arg-Oic-Pro-D-Ala-Phe(p-Br)) (peptide)", "values": [{"measurement": "pKi", "setting": "human γ-thrombin (human)", "result": 4.31}]}
{"substance": "rOicPaF(p-I) (D-Arg-Oic-Pro-D-Ala-Phe(p-I)) (peptide)", "values": [{"measurement": "pKi", "setting": "human γ-thrombin (human)", "result": 4.23}]}
{"substance": "rOicPsF(p-Me) (D-Arg-Oic-Pro-D-Ser-Phe(p-Me)) (peptide)", "values": [{"measurement": "pKi", "setting": "human γ-thrombin (human)", "result": 4.37}]}
{"substance": "rOicPaF(p-Me) (D-Arg-Oic-Pro-D-Ala-Phe(p-Me)) (peptide)", "values": [{"measurement": "% of RPPGFK-biotin displaced", "setting": "[1]", "result": 63, "unit": "%"}, {"measurement": "pKi", "setting": "human γ-thrombin (human)", "result": 4.27}, {"measurement": "% of RPPGFK-biotin displaced", "setting": "[2]", "result": 19, "unit": "%"}, {"measurement": "% of RPPGFK-biotin displaced", "setting": "[3]", "result": 49, "unit": "%"}]}
{"substance": "rOicPaF(p-NO2) (D-Arg-Oic-Pro-D-Ala-Phe(p-NO2)) (peptide)", "values": [{"measurement": "peptide concentration giving significant prolongation (p<0.05) of the APTT of normal human plasma", "setting": "human α-thrombin (human) [4]", "result": 50, "unit": "µM"}, {"measurement": "peptide concentration giving significant prolongation (p<0.05) of the PT of normal human plasma", "setting": "human α-thrombin (human) [4]", "result": 6.25, "unit": "µM"}, {"measurement": "peptide concentration giving significant prolongation (p<0.05) of the TCT of normal human plasma", "setting": "human α-thrombin (human) [4]", "result": 1.56, "unit": "µM"}, {"measurement": "pKi", "setting": "human γ-thrombin (human)", "result": 4.06}, {"measurement": "pKi", "setting": "human α-thrombin (human) [5]", "result": 4.97}]}
